Assay in all cases: SPR
Assay [1] deals with monoglycosylated bifucosylated IgG (human).
Assay [2] concerns the target monoglycosylated monofucosylated IgG (human).
Assay [3] concerns the target monofucosylated A330W E269I KiH Rituximab IgG1 (human).
The target in assay [4] is afucosylated A330W E269I KiH Rituximab IgG1 (human).
The target of assay [5] is bifucosylated A330W E269M KiH Rituximab IgG1 (human).
Assay [6] concerns the target afucosylated agalactosylated KiH-A330W anti-DENV2 E protein IgG1 (C10) (human).
Assay [7] has as its target monofucosylated A330W E269M KiH Rituximab IgG1 (human).
For assay [8], the target named is bifucosylated A330W E269I KiH Rituximab IgG1 (human).

Regarding “soluble human FcγRIIIA-F158 ectodomain (from UniProt P08637 17-208) (receptor)”, the Kd was determined as 1640 nM in assay [1]; 554 nM in assay [2]; 698 nM in assay [3]; 159 nM in assay [4]; 1480 nM in assay [5]; 39 nM in assay [6]. Also, the Kd in assay [7] came out at 119 nM; in assay [8], 2070 nM.

Source of the values: paper PMC12796453.
